According to the Human Domainome abundance scans (Beltran et al. 2025):
± gives the uncertainty stated by the source.

B1: Friend leukemia integration 1 transcription factor, residues 116 to 197; numbered along this chain, Q01543 (parent)
chain: NMTTNERRVIVPADPTLWTQEHVRQWLEWAIKEYSLMEIDTSFFQNMDGKELCKMNKEDFLRATTLYNTEVLLSHLSYLRES

Variants of: B1
Assay: abundance fitness (aPCA) (normalised: wild type 0, dead -1); higher = more abundant; growth selection in yeast, the domain comes from the species named
Conditions: Homo sapiens

| Variant | abundance fitness |
| --- | --- |
| NMTTNERRVIVPADPTLWTQEHVRQWLEWAIKEYSLMEIDKSFFQNMDGKELCKMNKEDFLRATTLYNTEVLLSHLSYLRES | 0.011 ± 0.093 |
| NMTTNERRVIVPADPTLWTQEHVRQWLEWAIKEYSLMEIDVSFFQNMDGKELCKMNKEDFLRATTLYNTEVLLSHLSYLRES | -0.09 ± 0.1 |
| NMTTNERRVIVPADPTLWTQEHVRQWLEWAIKEYSLMEIDHSFFQNMDGKELCKMNKEDFLRATTLYNTEVLLSHLSYLRES | -0.14 ± 0.17 |
| NMTTNERRVIVPADPTLWTQEHVRQWLEWAIKEYSLMEIVTSFFQNMDGKELCKMNKEDFLRATTLYNTEVLLSHLSYLRES | -0.892 ± 0.16 |
| NMTTNERRVIVPADPTLWTQEHVRQWLEWAIKEYSLMEILTSFFQNMDGKELCKMNKEDFLRATTLYNTEVLLSHLSYLRES | -0.921 ± 0.12 |
| NMTTNERRVIVPADPTLWTQEHVRQWLEWAIKEYSLMEIMTSFFQNMDGKELCKMNKEDFLRATTLYNTEVLLSHLSYLRES | -0.67 ± 0.2 |
| NMTTNERRVIVPADPTLWTQEHVRQWLEWAIKEYSLMEITTSFFQNMDGKELCKMNKEDFLRATTLYNTEVLLSHLSYLRES | -0.268 ± 0.12 |
| NMTTNERRVIVPADPTLWTQEHVRQWLEWAIKEYSLMEIKTSFFQNMDGKELCKMNKEDFLRATTLYNTEVLLSHLSYLRES | -0.276 ± 0.18 |
| NMTTNERRVIVPADPTLWTQEHVRQWLEWAIKEYSLMEIQTSFFQNMDGKELCKMNKEDFLRATTLYNTEVLLSHLSYLRES | -0.252 ± 0.17 |
| NMTTNERRVIVPADPTLWTQEHVRQWLEWAIKEYSLMEIYTSFFQNMDGKELCKMNKEDFLRATTLYNTEVLLSHLSYLRES | -0.686 ± 0.26 |
| NMTTNERRVIVPADPTLWTQEHVRQWLEWAIKEYSLMEISTSFFQNMDGKELCKMNKEDFLRATTLYNTEVLLSHLSYLRES | -0.217 ± 0.092 |
| NMTTNERRVIVPADPTLWTQEHVRQWLEWAIKEYSLMEIITSFFQNMDGKELCKMNKEDFLRATTLYNTEVLLSHLSYLRES | -0.576 ± 0.36 |
| NMTTNERRVIVPADPTLWTQEHVRQWLEWAIKEYSLMEIATSFFQNMDGKELCKMNKEDFLRATTLYNTEVLLSHLSYLRES | -0.486 ± 0.1 |
| NMTTNERRVIVPADPTLWTQEHVRQWLEWAIKEYSLMEIRTSFFQNMDGKELCKMNKEDFLRATTLYNTEVLLSHLSYLRES | -0.469 ± 0.084 |
| NMTTNERRVIVPADPTLWTQEHVRQWLEWAIKEYSLMEIGTSFFQNMDGKELCKMNKEDFLRATTLYNTEVLLSHLSYLRES | -0.631 ± 0.076 |
| NMTTNERRVIVPADPTLWTQEHVRQWLEWAIKEYSLMEIETSFFQNMDGKELCKMNKEDFLRATTLYNTEVLLSHLSYLRES | -0.043 ± 0.11 |
| NMTTNERRVIVPADPTLWTQEHVRQWLEWAIKEYSLMEIPTSFFQNMDGKELCKMNKEDFLRATTLYNTEVLLSHLSYLRES | -0.162 ± 0.11 |

| Variant | abundance fitness |
| --- | --- |
| NMTTNERRVIVPADPTLWTQEHVRQWLEWAIKEYSLMEINTSFFQNMDGKELCKMNKEDFLRATTLYNTEVLLSHLSYLRES | 0.162 ± 0.14 |
| NMTTNERRVIVPADPTLWTQEHVRQWLEWAIKEYSLMEIWTSFFQNMDGKELCKMNKEDFLRATTLYNTEVLLSHLSYLRES | -0.887 ± 0.21 |
| NMTTNERRVIVPADPTLWTQEHVRQWLEWAIKEYSLMEIDTYFFQNMDGKELCKMNKEDFLRATTLYNTEVLLSHLSYLRES | -0.264 ± 0.14 |
| NMTTNERRVIVPADPTLWTQEHVRQWLEWAIKEYSLMEIDTWFFQNMDGKELCKMNKEDFLRATTLYNTEVLLSHLSYLRES | -0.294 ± 0.059 |
| NMTTNERRVIVPADPTLWTQEHVRQWLEWAIKEYSLMEIDTKFFQNMDGKELCKMNKEDFLRATTLYNTEVLLSHLSYLRES | -0.223 ± 0.11 |
| NMTTNERRVIVPADPTLWTQEHVRQWLEWAIKEYSLMEIDTDFFQNMDGKELCKMNKEDFLRATTLYNTEVLLSHLSYLRES | 0.084 ± 0.18 |
| NMTTNERRVIVPADPTLWTQEHVRQWLEWAIKEYSLMEIDTAFFQNMDGKELCKMNKEDFLRATTLYNTEVLLSHLSYLRES | -0.037 ± 0.063 |
| NMTTNERRVIVPADPTLWTQEHVRQWLEWAIKEYSLMEIDTEFFQNMDGKELCKMNKEDFLRATTLYNTEVLLSHLSYLRES | -0.352 ± 0.12 |
| NMTTNERRVIVPADPTLWTQEHVRQWLEWAIKEYSLMEIDTVFFQNMDGKELCKMNKEDFLRATTLYNTEVLLSHLSYLRES | -0.07 ± 0.08 |
| NMTTNERRVIVPADPTLWTQEHVRQWLEWAIKEYSLMEIDTHFFQNMDGKELCKMNKEDFLRATTLYNTEVLLSHLSYLRES | -0.054 ± 0.26 |
| NMTTNERRVIVPADPTLWTQEHVRQWLEWAIKEYSLMEIDTTFFQNMDGKELCKMNKEDFLRATTLYNTEVLLSHLSYLRES | 0.023 ± 0.083 |
| NMTTNERRVIVPADPTLWTQEHVRQWLEWAIKEYSLMEIDTRFFQNMDGKELCKMNKEDFLRATTLYNTEVLLSHLSYLRES | -0.115 ± 0.068 |
| NMTTNERRVIVPADPTLWTQEHVRQWLEWAIKEYSLMEIDTMFFQNMDGKELCKMNKEDFLRATTLYNTEVLLSHLSYLRES | -0.11 ± 0.054 |
| NMTTNERRVIVPADPTLWTQEHVRQWLEWAIKEYSLMEIDTLFFQNMDGKELCKMNKEDFLRATTLYNTEVLLSHLSYLRES | -0.134 ± 0.054 |
| NMTTNERRVIVPADPTLWTQEHVRQWLEWAIKEYSLMEIDTGFFQNMDGKELCKMNKEDFLRATTLYNTEVLLSHLSYLRES | -0.062 ± 0.065 |
| NMTTNERRVIVPADPTLWTQEHVRQWLEWAIKEYSLMEIDTNFFQNMDGKELCKMNKEDFLRATTLYNTEVLLSHLSYLRES | 0.291 ± 0.33 |
| NMTTNERRVIVPADPTLWTQEHVRQWLEWAIKEYSLMEIDTPFFQNMDGKELCKMNKEDFLRATTLYNTEVLLSHLSYLRES | -0.094 ± 0.073 |
